According to IntAct's records for PubMed 20969867:

Legend:
kmt2a_human KMT2A [1] = biological target: kmt2a_human KMT2A (UniProt Q03164)
kmt2a_human KMT2A [2] = biological target: kmt2a_human KMT2A (UniProt Q03164); remark: listed apart in the source
kmt2a_human KMT2A [3] = biological target: kmt2a_human KMT2A (UniProt Q03164); remark: listed apart in the source
kmt2a_human KMT2A [4] = biological target: kmt2a_human KMT2A (UniProt Q03164); remark: listed apart in the source
kmt2a_human KMT2A [5] = biological target: kmt2a_human KMT2A (UniProt Q03164); remark: listed apart in the source
kmt2a_human KMT2A [6] = biological target: kmt2a_human KMT2A (UniProt Q03164); remark: listed apart in the source
kmt2a_human KMT2A [7] = biological target: kmt2a_human KMT2A (UniProt Q03164); remark: listed apart in the source

Chain of kmt2a_human KMT2A (Q03164 whole entry): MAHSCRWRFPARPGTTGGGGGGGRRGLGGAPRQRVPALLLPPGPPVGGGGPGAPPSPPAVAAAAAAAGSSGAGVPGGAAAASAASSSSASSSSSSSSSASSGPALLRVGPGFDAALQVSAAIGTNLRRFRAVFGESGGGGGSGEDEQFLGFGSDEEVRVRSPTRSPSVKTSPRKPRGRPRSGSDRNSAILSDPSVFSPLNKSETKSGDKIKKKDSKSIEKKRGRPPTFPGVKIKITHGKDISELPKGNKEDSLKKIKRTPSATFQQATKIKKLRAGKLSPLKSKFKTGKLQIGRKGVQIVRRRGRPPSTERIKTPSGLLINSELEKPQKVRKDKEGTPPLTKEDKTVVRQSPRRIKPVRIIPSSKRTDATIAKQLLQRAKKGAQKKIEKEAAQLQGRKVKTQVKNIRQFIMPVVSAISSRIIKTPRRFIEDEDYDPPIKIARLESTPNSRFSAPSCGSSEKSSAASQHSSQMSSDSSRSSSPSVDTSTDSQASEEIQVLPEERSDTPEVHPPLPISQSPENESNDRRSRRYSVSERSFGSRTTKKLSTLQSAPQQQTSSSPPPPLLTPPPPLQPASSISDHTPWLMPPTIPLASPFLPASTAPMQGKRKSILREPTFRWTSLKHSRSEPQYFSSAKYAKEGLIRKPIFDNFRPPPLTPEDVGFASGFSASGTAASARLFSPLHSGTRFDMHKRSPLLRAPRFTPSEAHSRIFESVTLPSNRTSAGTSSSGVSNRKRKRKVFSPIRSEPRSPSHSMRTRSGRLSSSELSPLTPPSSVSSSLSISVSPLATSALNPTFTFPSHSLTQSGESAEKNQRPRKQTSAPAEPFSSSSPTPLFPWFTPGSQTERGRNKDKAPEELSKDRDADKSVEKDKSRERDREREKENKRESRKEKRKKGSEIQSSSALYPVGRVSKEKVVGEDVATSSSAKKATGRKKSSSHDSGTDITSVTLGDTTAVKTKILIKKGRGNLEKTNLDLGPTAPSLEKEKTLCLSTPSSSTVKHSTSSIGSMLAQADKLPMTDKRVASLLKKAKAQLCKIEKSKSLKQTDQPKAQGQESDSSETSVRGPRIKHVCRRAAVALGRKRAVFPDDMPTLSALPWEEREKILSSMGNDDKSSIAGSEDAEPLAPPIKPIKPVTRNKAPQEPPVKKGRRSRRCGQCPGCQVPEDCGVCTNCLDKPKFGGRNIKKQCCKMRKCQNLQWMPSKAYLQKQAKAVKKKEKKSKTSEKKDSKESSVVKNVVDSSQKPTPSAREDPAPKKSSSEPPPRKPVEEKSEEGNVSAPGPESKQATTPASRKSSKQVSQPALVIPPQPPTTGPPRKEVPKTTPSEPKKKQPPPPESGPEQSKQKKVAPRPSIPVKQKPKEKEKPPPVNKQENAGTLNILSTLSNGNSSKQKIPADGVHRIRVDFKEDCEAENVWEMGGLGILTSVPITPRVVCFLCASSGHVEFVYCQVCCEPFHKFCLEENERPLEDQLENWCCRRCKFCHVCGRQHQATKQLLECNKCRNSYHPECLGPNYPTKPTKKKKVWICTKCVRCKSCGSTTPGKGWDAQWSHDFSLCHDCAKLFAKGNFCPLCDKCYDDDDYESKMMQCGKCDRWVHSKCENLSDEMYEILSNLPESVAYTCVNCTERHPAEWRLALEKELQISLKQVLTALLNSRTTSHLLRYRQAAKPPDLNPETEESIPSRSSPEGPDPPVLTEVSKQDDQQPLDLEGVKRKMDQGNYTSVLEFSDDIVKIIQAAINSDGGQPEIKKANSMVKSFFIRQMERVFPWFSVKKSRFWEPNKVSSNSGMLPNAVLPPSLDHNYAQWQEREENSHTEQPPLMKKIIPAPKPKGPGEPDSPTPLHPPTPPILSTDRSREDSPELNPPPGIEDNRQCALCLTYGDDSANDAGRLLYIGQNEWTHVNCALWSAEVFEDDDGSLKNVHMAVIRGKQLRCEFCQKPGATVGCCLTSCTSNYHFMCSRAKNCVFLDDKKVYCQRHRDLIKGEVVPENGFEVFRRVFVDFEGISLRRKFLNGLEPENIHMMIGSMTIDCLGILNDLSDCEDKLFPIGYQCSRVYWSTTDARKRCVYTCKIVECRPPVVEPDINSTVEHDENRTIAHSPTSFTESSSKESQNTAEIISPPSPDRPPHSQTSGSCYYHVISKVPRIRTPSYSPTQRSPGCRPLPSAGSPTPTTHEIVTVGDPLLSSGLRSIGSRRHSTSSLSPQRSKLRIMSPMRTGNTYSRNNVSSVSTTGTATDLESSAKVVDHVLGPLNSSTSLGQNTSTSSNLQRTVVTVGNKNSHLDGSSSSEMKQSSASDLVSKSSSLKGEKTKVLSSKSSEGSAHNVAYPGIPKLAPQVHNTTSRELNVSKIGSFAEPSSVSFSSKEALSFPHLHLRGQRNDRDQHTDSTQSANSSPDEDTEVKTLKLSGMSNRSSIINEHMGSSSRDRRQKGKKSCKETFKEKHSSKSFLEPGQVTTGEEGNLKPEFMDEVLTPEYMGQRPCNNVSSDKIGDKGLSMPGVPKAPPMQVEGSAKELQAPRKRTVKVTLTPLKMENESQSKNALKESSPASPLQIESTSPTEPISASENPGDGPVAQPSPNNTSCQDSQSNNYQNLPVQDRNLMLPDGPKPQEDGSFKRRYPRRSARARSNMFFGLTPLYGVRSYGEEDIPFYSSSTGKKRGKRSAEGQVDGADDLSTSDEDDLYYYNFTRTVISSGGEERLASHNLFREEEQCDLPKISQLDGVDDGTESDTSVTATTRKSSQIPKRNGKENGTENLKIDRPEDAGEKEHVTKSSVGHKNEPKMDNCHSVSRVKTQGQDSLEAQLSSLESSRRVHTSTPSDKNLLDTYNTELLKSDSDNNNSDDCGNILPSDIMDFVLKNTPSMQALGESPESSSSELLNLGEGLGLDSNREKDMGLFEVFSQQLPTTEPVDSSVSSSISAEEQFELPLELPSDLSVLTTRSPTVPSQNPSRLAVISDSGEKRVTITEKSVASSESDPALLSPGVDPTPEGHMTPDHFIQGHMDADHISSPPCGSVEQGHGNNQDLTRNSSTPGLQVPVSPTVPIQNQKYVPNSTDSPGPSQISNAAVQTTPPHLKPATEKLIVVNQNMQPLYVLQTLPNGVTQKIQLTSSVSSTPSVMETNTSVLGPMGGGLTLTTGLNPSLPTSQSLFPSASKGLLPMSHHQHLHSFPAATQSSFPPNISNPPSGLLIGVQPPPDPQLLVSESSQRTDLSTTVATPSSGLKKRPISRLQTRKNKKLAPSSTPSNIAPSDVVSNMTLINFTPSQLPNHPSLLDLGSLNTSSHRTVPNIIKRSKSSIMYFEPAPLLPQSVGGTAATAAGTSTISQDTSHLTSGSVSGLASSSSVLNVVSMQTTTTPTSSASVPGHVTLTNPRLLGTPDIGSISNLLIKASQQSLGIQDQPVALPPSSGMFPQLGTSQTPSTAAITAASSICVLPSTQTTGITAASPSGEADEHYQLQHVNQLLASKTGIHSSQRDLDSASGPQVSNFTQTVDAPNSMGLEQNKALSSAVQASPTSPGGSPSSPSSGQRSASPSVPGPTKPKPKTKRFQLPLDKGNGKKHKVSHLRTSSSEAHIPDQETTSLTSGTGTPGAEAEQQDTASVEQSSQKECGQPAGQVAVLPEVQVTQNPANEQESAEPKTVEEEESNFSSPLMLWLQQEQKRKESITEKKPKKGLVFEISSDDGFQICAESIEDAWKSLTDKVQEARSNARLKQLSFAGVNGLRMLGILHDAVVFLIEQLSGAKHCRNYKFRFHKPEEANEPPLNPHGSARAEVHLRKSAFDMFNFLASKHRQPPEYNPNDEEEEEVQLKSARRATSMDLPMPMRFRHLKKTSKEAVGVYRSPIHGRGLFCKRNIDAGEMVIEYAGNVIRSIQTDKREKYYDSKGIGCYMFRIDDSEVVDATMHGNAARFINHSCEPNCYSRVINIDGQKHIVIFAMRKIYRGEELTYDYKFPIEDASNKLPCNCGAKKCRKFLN

Histone lysine acetyltransferase CREBBP (Mus musculus), P45481 F612A
effect of a mutation on the interaction (kmt2a_human KMT2A [1]): decreasing interaction

Histone lysine acetyltransferase CREBBP (Mus musculus), P45481 Y631A
effect of a mutation on the interaction (kmt2a_human KMT2A [2]): decreasing interaction

Histone lysine acetyltransferase CREBBP (Mus musculus), P45481 L628A
effect of a mutation on the interaction (kmt2a_human KMT2A [3]): decreasing interaction | effect of a mutation on the interaction (kmt2a_human KMT2A [4]): disrupting interaction

Histone lysine acetyltransferase CREBBP (Mus musculus), P45481 L664A
effect of a mutation on the interaction (kmt2a_human KMT2A [5]): decreasing interaction

Histone lysine acetyltransferase CREBBP (Mus musculus), P45481 R624A
effect of a mutation on the interaction (kmt2a_human KMT2A [6]): decreasing interaction

Histone lysine acetyltransferase CREBBP (Mus musculus), P45481 R668A
effect of a mutation on the interaction (kmt2a_human KMT2A [7]): decreasing interaction
